Our source for the activity (% integration) values is patent US20250057980.

The target of this data set is T1, Bxb1 integrase (Mycobacterium phage Bxb1?) (UniProt Q9B086).
T1 sequence: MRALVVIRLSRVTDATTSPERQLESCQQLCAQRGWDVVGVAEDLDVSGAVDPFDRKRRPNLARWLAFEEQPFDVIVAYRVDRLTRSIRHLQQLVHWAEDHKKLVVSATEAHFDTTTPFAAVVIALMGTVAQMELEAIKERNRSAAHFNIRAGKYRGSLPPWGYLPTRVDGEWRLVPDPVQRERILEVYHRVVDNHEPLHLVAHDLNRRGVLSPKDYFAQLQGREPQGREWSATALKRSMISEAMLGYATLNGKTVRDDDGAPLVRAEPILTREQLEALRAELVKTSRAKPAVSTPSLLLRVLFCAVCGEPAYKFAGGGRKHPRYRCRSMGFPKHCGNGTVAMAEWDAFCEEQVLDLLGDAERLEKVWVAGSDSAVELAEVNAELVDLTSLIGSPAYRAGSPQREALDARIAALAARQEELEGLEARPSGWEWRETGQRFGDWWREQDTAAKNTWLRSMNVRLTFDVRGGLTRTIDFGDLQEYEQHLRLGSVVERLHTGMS
The data set is described as follows: cell_activity. To be noted: in vivo mouse liver, 1E11 vg Bxb1 AdV, 1E12 vg AAV; about 7% at 3E10 vg.

As to “AttP GT/GA dual site in Rosa26 of AttP mice with 38 bp GT AttB AAV donor”, the activity (% integration) was 11.
